tested on: Escherichia coli TOP10; experiment: shrunken log2 fold change of peptide-encoding DNA abundance (4.5 h post-induction vs induction); higher = less antimicrobial activity (less host growth inhibition); details: time post-induction: 4.5 h; library: site-saturation at positions 5, 18, 19, 20
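Also: peptides expressed intracellularly from a pBAD plasmid library in pooled LB shake-flask culture, induced with 0.3% L-arabinose, DNA abundance read by NGS, three biological replicates, DESeq2 with apeglm shrinkage.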

Sequence	shrunken log2 fold change
RRIRRRPPRLPRPRPRPQHSPRP	-0.0462
RRIRVRPPRLPRPRPRPDHAPRP	0.27
RRIRGRPPRLPRPRPRPEMSPRP	0.25
RRIRGRPPRLPRPRPRPDHKPRP	-0.154
RRIRLRPPRLPRPRPRPQVWPRP	0.000105
RRIRMRPPRLPRPRPRPMKCPRP	0.0208
RRIRVRPPRLPRPRPRPYMDPRP	-0.0331
RRIRIRPPRLPRPRPRPLYRPRP	-0.384
RRIRFRPPRLPRPRPRPIIRPRP	-0.014
RRIRDRPPRLPRPRPRPGDDPRP	0.636
RRIRERPPRLPRPRPRPKTHPRP	-0.392
RRIRKRPPRLPRPRPRPWCMPRP	0.183
RRIRERPPRLPRPRPRPQLWPRP	0.116
RRIRFRPPRLPRPRPRPNEDPRP	0.144
RRIRCRPPRLPRPRPRPLNVPRP	-0.186
RRIRYRPPRLPRPRPRPHFQPRP	-0.399
RRIRLRPPRLPRPRPRPKGGPRP	0.01
RRIRDRPPRLPRPRPRPVGCPRP	0.229
RRIRCRPPRLPRPRPRPQLAPRP	0.163
RRIRSRPPRLPRPRPRPCLCPRP	-1.28
RRIRQRPPRLPRPRPRPSYLPRP	-0.482
RRIRLRPPRLPRPRPRPVCDPRP	-0.0188
RRIRTRPPRLPRPRPRPNAIPRP	-0.797
RRIRWRPPRLPRPRPRPEAQPRP	0.779
RRIRVRPPRLPRPRPRPVNCPRP	-0.17

Sequence	shrunken log2 fold change
RRIRERPPRLPRPRPRPAQCPRP	-0.0401
RRIRTRPPRLPRPRPRPLYHPRP	-0.48
RRIRQRPPRLPRPRPRPHLSPRP	-0.00594
RRIRPRPPRLPRPRPRPAIKPRP	-0.339
RRIRERPPRLPRPRPRPGMMPRP	-0.235
RRIRSRPPRLPRPRPRPIKSPRP	0.041
RRIRERPPRLPRPRPRPYSLPRP	-0.0204
RRIRFRPPRLPRPRPRPCCFPRP	-0.354
RRIRARPPRLPRPRPRPKDTPRP	0.293
RRIRTRPPRLPRPRPRPVEVPRP	-0.0848
RRIRFRPPRLPRPRPRPHDNPRP	-0.392
RRIRTRPPRLPRPRPRPGDPPRP	0.106
RRIRSRPPRLPRPRPRPHMWPRP	0.202
RRIRERPPRLPRPRPRPSAIPRP	-0.115
RRIRKRPPRLPRPRPRPNGVPRP	0.0149
RRIRMRPPRLPRPRPRPRFDPRP	0.364
RRIRWRPPRLPRPRPRPMHSPRP	-0.0572
RRIRHRPPRLPRPRPRPQVDPRP	-0.0221
RRIRYRPPRLPRPRPRPYLVPRP	-0.536
RRIRMRPPRLPRPRPRPEGLPRP	0.0151
RRIRCRPPRLPRPRPRPRCCPRP	-0.245
RRIRIRPPRLPRPRPRPAMIPRP	0.0156
RRIRMRPPRLPRPRPRPEAWPRP	2.15
RRIRPRPPRLPRPRPRPNKVPRP	-0.1
RRIRQRPPRLPRPRPRPQPMPRP	0.348

Sequence	shrunken log2 fold change
RRIRWRPPRLPRPRPRPVNIPRP	0.0116
RRIRFRPPRLPRPRPRPKLDPRP	0.0288
RRIRSRPPRLPRPRPRPDSHPRP	-0.36
RRIRVRPPRLPRPRPRPMAVPRP	-0.0191
RRIRHRPPRLPRPRPRPIHQPRP	-0.441
RRIRMRPPRLPRPRPRPMGQPRP	0.579
RRIRQRPPRLPRPRPRPWFNPRP	-0.359
RRIRVRPPRLPRPRPRPAFCPRP	0.185
RRIRLRPPRLPRPRPRPLFNPRP	-0.468
RRIRDRPPRLPRPRPRPPAKPRP	0.443
RRIRPRPPRLPRPRPRPATAPRP	0.315
RRIRCRPPRLPRPRPRPVINPRP	-0.116
RRIRMRPPRLPRPRPRPHMGPRP	-0.0941
RRIRERPPRLPRPRPRPGDVPRP	-0.159
RRIRHRPPRLPRPRPRPLQVPRP	-0.28
RRIRNRPPRLPRPRPRPATSPRP	-0.214
RRIRGRPPRLPRPRPRPGYTPRP	-0.0605
RRIRNRPPRLPRPRPRPRQVPRP	-0.306
RRIRWRPPRLPRPRPRPRHMPRP	-0.139
RRIRHRPPRLPRPRPRPTGNPRP	-0.215
RRIRFRPPRLPRPRPRPAVQPRP	-0.0142
RRIRSRPPRLPRPRPRPESIPRP	-0.397
RRIRGRPPRLPRPRPRPKSNPRP	0.446
RRIRIRPPRLPRPRPRPNAQPRP	-0.0106
RRIRERPPRLPRPRPRPLKEPRP	-0.0885
